Measurements taken from patent US20080090254.

B1: IGF-1Receptor Kinase (protein)
chain: RKRNNSRLGNGVLYASVNPEYFSAADVYVPDEWEVAREKITMSRELGQGSFGMVYEGVAKGVVKDEPETRVAIKTVNEAASMRERIEFLNEASVMKEFNCHHVVRLLGVVSQGQPTLVIMELMTRGDLKSYLRSLRPEMENNPVLAPPSLSKMIQMAGEIADGMAYLNANKFVHRDLAARNCMVAEDFTVKIGDFGMTRDIYETDYYRKGGKGLLPVRWMSPESLKDGVFTTYSDVWSFGVVLWEIATLAEQPYQGLSNEQVLRFVMEGGLLDKPDNCPDMLFELMRMCWQYNPKMRPSFLEIISSIKEEMEPGFREVSFYYSEENKLPEPEELDLEPENMESVPLDPSASSSSLPLPDRHSGHKAENGPGPGVLVLRASFDERQPYAHMNGGRKNERALPLPQSSTC
B2: ErbB4 Kinase (protein)
chain: RRKSIKKKRALRRFLETELVEPLTPSGTAPNQAQLRILKETELKRVKVLGSGAFGTVYKGIWVPEGETVKIPVAIKILNETTGPKANVEFMDEALIMASMDHPHLVRLLGVCLSPTIQLVTQLMPHGCLLEYVHEHKDNIGSQLLLNWCVQIAKGMMYLEERRLVHRDLAARNVLVKSPNHVKITDFGLARLLEGDEKEYNADGGKMPIKWMALECIHYRKFTHQSDVWSYGVTIWELMTFGGKPYDGIPTREIPDLLEKGERLPQPPICTIDVYMVMVKCWMIDADSRPKFKELAAEFSRMARDPQRYLVIQGDDRMKLPSPNDSKFFQNLLDEEDLEDMMDAEEYLVPQAFNIPPPIYTSRARIDSNRSEIGHSPPPAYTPMSGNQFVYRDGGFAAEQGVSVPYRAPTSTIPEAPVAQGATAEIFDDSCCNGTLRKPVAPHVQEDSSTQRYSADPTVFAPERSPRGELDEEGYMTPMRDKPKQEYLNPVEENPFVSRRKNGDLQALDNPEYHNASNGPPKAEDEYVNEPLYLNTFANTLGKAEYLKNNILSMPEKAKKAFDNPDYWNHSLPPRSTLQHPDYLQEYSTKYFYKQNGRIRPIVAENPEYLSEFSLKPGTVLPPPPYRHRNTVV
B3: VEGF Receptor 1 Kinase (protein)
chain: RKMKRSSSEIKTDYLSIIMDPDEVPLDEQCERLPYDASKWEFARERLKLGKSLGRGAFGKVVQASAFGIKKSPTCRTVAVKMLKEGATASEYKALMTELKILTHIGHHLNVVNLLGACTKQGGPLMVIVEYCKYGNLSNYLKSKRDLFFLNKDAALHMEPKKEKMEPGLEQGKKPRLDSVTSSESFASSGFQEDKSLSDVEEEEDSDGFYKEPITMEDLISYSFQVARGMEFLSSRKCIHRDLAARNILLSENNVVKICDFGLARDIYKNPDYVRKGDTRLPLKWMAPESIFDKIYSTKSDVWSYGVLLWEIFSLGGSPYPGVQMDEDFCSRLREGMRMRAPEYSTPEIYQIMLDCWHRDPKERPRFAELVEKLGDLLQANVQQDGKDYIPINAILTGNSGFTYSTPAFSEDFFKESISAPKFNSGSSDDVRYVNAFKFMSLERIKTFEELLPNATSMFDDYQGDSSTLLASPMLKRFTWTDSKPKASLKIDLRVTSKSKESGLSDVSRPSFCHSSCGHVSEGKRRFTYDHAELERKIACCSPPPDYNSVVLYSTPPI
B4: PDGF Receptor β Kinase (protein)
chain: RYEIRWKVIESVSSDGHEYIYVDPMQLPYDSTWELPRDQLVLGRTLGSGAFGQVVEATAHGLSHSQATMKVAVKMLKSTARSSEKQALMSELKIMSHLGPHLNVVNLLGACTKGGPIYIITEYCRYGDLVDYLHRNKHTFLQHHSDKRRPPSAELYSNALPVGLPLPSHVSLTGESDGGYMDMSKDESVDYVPMLDMKGDVKYADIESSNYMAPYDNYVPSAPERTCRATLINESPVLSYMDLVGFSYQVANGMEFLASKNCVHRDLAARNVLICEGKLVKICDFGLARDIMRDSNYISKGSTFLPLKWMAPESIFNSLYTTLSDVWSFGILLWEIFTLGGTPYPELPMNEQFYNAIKRGYRMAQPAHASDEIYEIMQKCWEEKFEIRPPFSQLVLLLERLLGEGYKKKYQQVDEEFLRSDHPAILRSQARLPGFHGLRSPLDTSSVLYTAVQPNEGDNDYIIPLPDPKPEVADEGPLEGSPSLASSTLNEVNTSSTISCDSPLEPQDEPEPEPQLELQVEPEPELEQLPDSGCPAPRAEAEDSFL

What follows are proteins tested against GST-poly(Glu, Tyr) substrate.
Sequence of GST-poly(Glu, Tyr) substrate (chain, as listed by the source): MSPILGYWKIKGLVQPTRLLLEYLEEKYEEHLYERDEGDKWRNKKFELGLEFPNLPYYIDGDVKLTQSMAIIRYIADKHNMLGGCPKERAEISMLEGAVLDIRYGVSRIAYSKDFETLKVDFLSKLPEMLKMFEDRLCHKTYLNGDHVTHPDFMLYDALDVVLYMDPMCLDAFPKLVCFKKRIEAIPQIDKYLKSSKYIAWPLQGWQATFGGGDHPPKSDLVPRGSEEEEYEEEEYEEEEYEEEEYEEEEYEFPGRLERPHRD
B1 was tested, and the “phosphorylation of the substrate, Western blotting with anti-phosphotyrosine” value (from here on “phosphorylation of the substrate”) was “At + of all (i to vii) of FIG. 1, a single band was seen at positions where the phosphorylated GST-poly (Glu, Tyr) substrate appears”. For B2, the “phosphorylation of the substrate” value was “At + of all (i to vii) of FIG. 1, a single band was seen at positions where the phosphorylated GST-poly (Glu, Tyr) substrate appears”. B3 was tested, and the “phosphorylation of the substrate” value was “At + of all (i to vii) of FIG. 1, a single band was seen at positions where the phosphorylated GST-poly (Glu, Tyr) substrate appears”. With B4 the “phosphorylation of the substrate” value was “At + of all (i to vii) of FIG. 1, a single band was seen at positions where the phosphorylated GST-poly (Glu, Tyr) substrate appears”.
